Entries after “also recorded” stand apart in the source; their conditions may differ.
Experiments:
[1] = Chromogenic reaction of degrading herbicides in bacteria: 2,4-D; assay type: cell-based, Escherichia coli; details: recombinant E. coli expressing the gene, 2,4-D added to the medium, red = phenols
Summary of the method: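 Colour from 2,4-D degradation was detected at A510 after 5 min at room temperature, with 4-aminoantipyrine and ferricyanide added to culture supernatant in pH 10 borate. Cultures were AAD12-expressing or empty-vector (pET15b) BL21(DE3), grown overnight at 28 °C with 0.5 mM 2,4-D, 0.1 mM IPTG and 2 mM α-ketoglutarate.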

[2] = test system: Arabidopsis thaliana; assay: Herbicide resistance of transgenic Arabidopsis thaliana seedlings on plate medium (root growth); assay type: in vivo; details: Arabidopsis overexpressing the gene
Summary of the method: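 After 3 days of cold treatment at 4 °C, seeds were cultured at 22 °C under a 16 h/8 h light cycle on MS herbicide medium (0.3 μM 2,4-D in the screen). Root growth was scored against wild-type seedlings at one week. The material was T2 AAD-overexpressing lines (AtUbi10 promoter, MAS terminator, hygromycin marker), two events each, tested with 2,4-D, 2,4-DB sodium and MCPA.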

[3] = test system: Arabidopsis thaliana; assay: as above; assay type: in vivo; details: plate medium with 2,4-D (0.3 μmol)
[4] = assay type: cell-based, Escherichia coli
[5] = Chromogenic reaction of degrading herbicides in bacteria: triclopyr; assay type: cell-based, Escherichia coli; details: recombinant E. coli expressing the gene
Experimental: To transform the plasmids to be tested, an AAD12-expressing plasmid and a blank control plasmid pET15b were respectively transformed into the protein expression E. coli BL21(DE3) strains. A monoclone was selected and inoculated in a 10 ml centrifuge tube with 3 ml LB medium, and cultivated at 37° C., 200 rpm for 6-8 hours. […] The temperature was switched to 28° C. and the cultivation continued overnight. In the next morning, 200 μL of each bacteria solution was taken and centrifuged to precipitate thallus, 180 μL of the supernatant was taken and added in a 96-well plate, and 20 μL of borate buffer of pH 10 was added. Then the mixture was added with 2 μL of 8% potassium ferricyanide and mixed well, followed by adding 2 μL of 2% 4-aminoantipyrine, and placed at room temperature for 5 min to observe the color and detect the A510 value. […]

| Molecule | Chromogenic reaction of degrading herbicides in bacteria: 2,4-D [1] | Chromogenic reaction of degrading herbicides in bacteria: 2,4-D ([1]; listed as D52) | Resistance of transgenic Arabidopsis thaliana: 2,4-D [2] | 2,4-D resistance of T1 generation transgenic seedlings (seminal root growth) [3] | Chromogenic reaction of degrading herbicides in bacteria: MCPA [4] | Chromogenic reaction of degrading herbicides in bacteria: 2,4-D ([1]; listed as D51) | Resistance of transgenic Arabidopsis thaliana: MCPA [2] | Chromogenic reaction of degrading herbicides in bacteria: 2,4-D ([1]; listed as D30) | Chromogenic reaction of degrading herbicides in bacteria: Triclopyr [5] | Chromogenic reaction of degrading herbicides in bacteria: Triclopyr ([5]; listed as D30) | Chromogenic reaction of degrading herbicides in bacteria: 2,4-D ([1]; listed as D56) | Chromogenic reaction of degrading herbicides in bacteria: 2,4-D ([1]; listed as D57) | Chromogenic reaction of degrading herbicides in bacteria: 2,4-D ([1]; listed as D55) | Chromogenic reaction of degrading herbicides in bacteria: 2,4-D ([1]; listed as D53) | Chromogenic reaction of degrading herbicides in bacteria: 2,4-D ([1]; listed as D44) |
| --- | --- | --- | --- | --- | --- | --- | --- | --- | --- | --- | --- | --- | --- | --- | --- |
| QYD52: AAD-like enzyme, SEQ ID NO. 103 (protein, Synthetic polypeptide, QYD52, D52) MTRTLDIEPIDATFGAVVRGIKVAEVDDETFRALYDAWLQYALLIFPDQHLQRDQQIAFAKRFGPLEFEMTAISNVRSDGTLRLEKDNDDVMKILKGNMGWHHDSTYMPVQAKGAVFSAEEVPTIGGRTGFADMRAAYDALDPAMKARIEGLNAYHSLHYSQGKVGHQTRKADGEYSGYGLHDGPVPLRPLVKTHPETGRKSLLAGRHAHNIPGLSQEASDSLLRELIDFACQPPRIYHHDWTPGDAVVWDNRCLMHQATPWDMTQRRIMWHSRIAGDPASESSLAA | Yes | could degrade 2,4-D; also recorded: capable of degrading 2,4-D | Yes | showing tolerance to 2,4-D | Yes | – | – | – | – | – | – | – | – | – | – |
| QYD51: AAD-like enzyme, SEQ ID NO. 101 (protein, Synthetic polypeptide, QYD51, D51) MARTLDIEPIDATFGAVVRGIKVAEVDDETFRALYDAWLEYALLIFPDQHLKRDQQIAFAKRFGPLEFEMTAISNVRSDGTLRLEKDNDDVMKVLKGNMGWHHDSTYMPVQAKGAVFSAEEVPTIGGRTGFADMRAAYDALDPAMKARIEGLNAYHSLHYSQGRVGHQTKKSDGEYSGYGLHDGPVPLRPLVKTHPETGRKSLLAGRHAHNIPGLAQEESDRLLRELIDFACQPPRIYHHDWTPGEAVVWDNRCLMHQATPWDMTQRRIMWHSRIAGDPASESARPQP | Yes | – | Yes | showing tolerance to 2,4-D | Yes | could degrade 2,4-D; also recorded: capable of degrading 2,4-D | Yes | – | – | – | – | – | – | – | – |
| QYD30: AAD-like enzyme, SEQ ID NO. 59 (protein, Synthetic polypeptide, QYD30, D30) MALSLTPLTPGFVAEASGLDLTRPLDAAAVRTIEQAMDDYAVLVFRNQPLDQDQQIRFAQGFGPLDLGLRKVKGGAHRFDHAELADISNVTVDGSVAGRDHAKIVGNIANQLWHSDSSFQRPRAKYSMLSAVVVPQDGGQTEFADLRAAYDHLPDGMKAAIGDLQAVHYALHSRFLLGDTEYTQAQRDALPAVRWPLVQTDPRSGRKILFVGIHACEVVGMTVAEGRMLLLDLLEHATQREFVYRHHWRVGDLVMWDNTATLHRGRRFDLAQRRELRRATTEEVRLSAEARAAA | Yes | – | Yes | – | Yes | – | – | could degrade 2,4-D; also recorded: capable of degrading 2,4-D | Yes | slight degradation | – | – | – | – | – |
| QYD56: AAD-like enzyme, SEQ ID NO. 111 (protein, Synthetic polypeptide, QYD56, D56) MARTFDVQPLDATFGAVISGVKLAALDDETWRELYATWLQYALLVFPGQHLSRDQQIAFARRFGPLEFEIIALSNVKSDGTIRSEVENDDVIKVLKGNMGWHADSTYMPVQAKGAVFTAEVVPSVGGQTGWADMRAAYDALDGATRQKVEQLSAYHSLHYSQSKLGHQHKPGSAYSGYGFHDGPVPLRPLVKTHPETGRKSLLIGRHAHNIPGMDKDESARFLEDLVASACQPPRIYHHTWAAGDAVVWDNRCLLHQATPWDMTQPRVMWHSRIAGDPLSEAALG | – | – | Yes | showing tolerance to 2,4-D | Yes | – | – | – | – | – | could degrade 2,4-D; also recorded: capable of degrading 2,4-D | – | – | – | – |
| QYD57: AAD-like enzyme, SEQ ID NO. 113 (protein, Synthetic polypeptide, QYD57, D57) MPQHFDVAPVDATFGAVVTNLKLANLDEPAFRELYATWLEHALLIFPGQFLTREQQIAFARRFGALEFEMAAISNVKSDGTLRREADNDDVVKILKGNMGWHADSTYMPLQAKGAVFSAKVVPSARGETGWADMRAAYDALDAAVRDRVERLSAYHSLHYSQAKAGFQHKDKKSEYSGYGLHDGPVPLRPLVKTHPETGRKSLLIGRHAHNIPGMEPEESERLLDGLVEFACQAPRTYHHSWKPGEAVIWDNRCLLHRAMPWDMTEPRIMWHSRIAGDPASEAAIN | Yes | – | Yes | showing tolerance to 2,4-D | Yes | – | Yes | – | – | – | – | could degrade 2,4-D; also recorded: capable of degrading 2,4-D | – | – | – |
| QYD55: AAD-like enzyme, SEQ ID NO. 109 (protein, Synthetic polypeptide, QYD55, D55) MARPFDIEPLDATFGAVVRGVKVAALDDVTWRALHDAWLQYALLIFPGQHLSREAQIAFAKRFGPLEFEMAPISNVRADGSVRAEAENDDVIKVLKGNMGWHCDSTYMPVQAKGAVFSAEVVPGAGGQTGWADMRAAYDALDGDLRARIENLSAYHSLYYSQAKLDHRPSKSSAYSGYGFHDGPVPLRPLVKVHPETGRKSLLIGRHAHNIPGMDADESTRLLQSLVDFACRPPRIYHHHWTAGDTVVWDNRCLLHQATPWDMTQPRVMWHSRIAGDPASEAALA | Yes | – | Yes | showing tolerance to 2,4-D | Yes | – | – | – | – | – | – | – | could degrade 2,4-D; also recorded: capable of degrading 2,4-D | – | – |
| QYD53: AAD-like enzyme, SEQ ID NO. 105 (protein, Synthetic polypeptide, QYD53, D53) MASTLSLQPLEGITFGAVATGFRIAELDEPTWQALHDAWLDHALLIFPGQFLTRDEQIAFARRFGPLEFEMAAISNVKPDGTLRLEKDNDDMMKVLKGNMGWHADSTYMPVQAKGAVFSAEVVPTIGGETGWADMRAAYEALDAATREKIDGLSAFHSLHYSQSKLGHQTQKSDGQYNGYGLHDGPVPLRPLVKTHPETGRKSLLIGRHAHNIPGMDKAESERFLDGLIAFACQPPRVYHHHWAPGDVVVWDNRCLLHQATPWDMTQPRVMWHSRIAGDPASEAGLAA | Yes | – | Yes | showing tolerance to 2,4-D | Yes | – | Yes | – | – | – | – | – | – | could degrade 2,4-D; also recorded: capable of degrading 2,4-D | – |
| QYD44: AAD-like enzyme, SEQ ID NO. 87 (protein, Synthetic polypeptide, QYD44, D44) MARAFDIAPLDATFGAVVTGVKLAEVDDAGWCDLHAAWLEHALLVFPDQHLTRAQQIAFARRFGPLEFEMAAISNVRPDGSLRVESDNDDMMKILKGNMGWHADSTYMPVQAKGAVFSAEVVPGSGGQTGFADMRAAYDALDENLKARVETLQARHSLHYSQSKLGHETKTADGEYSGYGLHDGPVPLRPLVKVHPETGRKSLLIGRHAHAIPGMERAESERLLQQLIDFACQPPRVYHHDWAPGDAVLWDNRCLLHQATPWDMTQKRIMWHSRIAGDPASETALAGAGP | Yes | – | Yes | showing tolerance to 2,4-D | Yes | – | Yes | – | – | – | – | – | – | – | could degrade 2,4-D; also recorded: capable of degrading 2,4-D |

— patent US20240043859A1, “HERBICIDE-RESISTANT PROTEIN, AND GENE AND USE THEREOF” (QINGDAO KINGAGROOT CHEMICAL COMPOUND CO., LTD., priority 2020, published 2024)
